Assay results: patent US8273710B2, “Protein hydrolysate enriched in peptides inhibiting DPP-IV and their use” (Campina Nederland Holding B.V., priority 2004, dated 2012)

Biological target: T1, DPP-IV (Sus scrofa, UniProt P22411)
Assay: In vitro DPP-IV inhibition assay with Gly-Pro-p-nitroanilide substrate (absorption at 385 nm)
Assay type: biochemical
Parameters: purchased Sigma D-7052
Settings: unhydrolysed control proteins, DH 0%
Experimental: DPP-IV activity can be determined by measuring the increase in absorption at 385 nm using Gly-Pro-p-nitroanilide (Sigma G-0513) as DPP-IV substrate. A decrease in DPP-IV activity is a measure for the inhibition.
13.152 mg Gly-Pro-p-nitroanilide (substrate; Sigma G-0513) was dissolved in 1 ml Tris buffer, pH 8.0. DPP-IV (Sigma D-7052) was diluted with Tris buffer, pH 8.0 to 1.1 Unit/ml. The substrate was diluted 50-fold with Tris buffer, pH 8.0. The samples were prepared by diluting a protein hydrolysate to a 1 wt. % protein solution in Tris buffer, pH 8.0. The samples were then serially diluted to obtain a range of sample concentrations. 50 μl of the different serially diluted samples and 50 μl of the diluted substrate were then pipetted in wells of a microtiter plate with 96 wells. Subsequently, 100 μl of the diluted enzyme was pipetted in each well of a plate with 96 wells. Then the increase in absorption at 385 nm was determined and DPP-IV activities at different concentrations of a variety of protein hydrolysates were determined, from which the IC50 (i.e. the concentration of inhibitor (particular protein hydrolysate) that inhibits 50% of the DPP-IV activity) could be derived. […] The degree of hydrolysis was determined using the o-phtaldialdehyde method, which is well known in the art.

T1 sequence (P22411 whole entry): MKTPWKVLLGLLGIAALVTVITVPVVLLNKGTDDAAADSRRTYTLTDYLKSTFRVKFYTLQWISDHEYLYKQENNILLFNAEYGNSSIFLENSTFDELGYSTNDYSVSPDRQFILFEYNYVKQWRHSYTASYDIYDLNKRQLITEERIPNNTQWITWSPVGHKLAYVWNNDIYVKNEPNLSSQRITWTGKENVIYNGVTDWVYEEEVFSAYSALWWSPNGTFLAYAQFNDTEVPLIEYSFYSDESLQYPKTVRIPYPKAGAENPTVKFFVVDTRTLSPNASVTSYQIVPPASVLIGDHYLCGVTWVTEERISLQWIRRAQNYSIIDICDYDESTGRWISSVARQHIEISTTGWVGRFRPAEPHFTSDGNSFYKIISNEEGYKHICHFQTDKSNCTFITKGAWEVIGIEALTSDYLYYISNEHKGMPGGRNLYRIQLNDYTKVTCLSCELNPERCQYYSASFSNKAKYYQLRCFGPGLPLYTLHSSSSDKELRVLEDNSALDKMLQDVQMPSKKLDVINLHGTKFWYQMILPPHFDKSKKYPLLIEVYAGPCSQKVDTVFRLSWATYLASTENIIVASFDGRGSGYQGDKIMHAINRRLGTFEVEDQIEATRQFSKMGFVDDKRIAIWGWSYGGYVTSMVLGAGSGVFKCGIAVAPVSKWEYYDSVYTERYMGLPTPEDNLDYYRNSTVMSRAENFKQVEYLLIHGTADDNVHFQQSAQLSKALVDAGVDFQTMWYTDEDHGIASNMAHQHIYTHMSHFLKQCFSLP

Row | Molecule | inhibition of the enzyme DPP-IV
1 | Sodium caseinate | did not inhibit

Biological target: T1, DPP-IV
Assay: not given
Settings: additional peptides
From the text: About 40 protein hydrolysates were subjected to on-line liquid chromatography (LC)-biochemical detection (BCD)-mass spectrometry (MS), a method that allowed for separation of crude extract by HPLC, after which the presence of bioactive compounds was detected by means of an on-line biochemical assay. This method for on-line fractionation and characterisation has extensively been described by Van Elswijk et al. (J Chromatography A (2003) 1020:45-58).
A variety of protein hydrolysates prepared according to example 2 were further investigated for DPP-IV inhibiting activity. Hydrolysed protein samples were analysed for DPP-IV inhibitory activity in a high-resolution screening (HRS) instrument, as discussed in Van Elswijk et al. (supra).
DPP-IV inhibition was monitored via the substrate conversion based bioassay format as disclosed in example 1. In addition to the DPP-IV inhibitory activity data, chemical information was obtained in real-time by allowing part of the HPLC effluent to be directed towards a mass spectrometer. […] The assay conditions applied ensured maximum enzyme activity by applying substrate saturation.

Row | Molecule | DPP-IV inhibiting activity (qualitative)
2 | VTKCCTE | DPP-IV inhibiting compounds

Same assay, conditions: signal relative to the highest signal obtained in this test (LPL and IPI)

Row | Molecule | RELATIVE POTENCY [%]
3 | CC[C@H](C)[C@H](N)C(=O)N1CCC[C@H]1C(=O)N[C@H](C(=O)O)[C@@H](C)CC [IPI] | 100
4 | GPFP | 34
5 | HPIK | 6
6 | KVLP | 98
7 | LPLP | 11
8 | LPVP | 15
9 | MPLW | 23
10 | PFP | 20
11 | PLLQ | 37
